The numbers were not newly measured in paper PMC4615603, which cites them from elsewhere.

For this series, the target named is Nef (Human immunodeficiency virus 1) (UniProt P04324).

In the case of Hck SH3 (from UniProt P08631), the Kd was 120 nM.

Usually Kd stands for the equilibrium constant for the complex coming apart.
